# Reference: paper PMC7728349, “Exploring the Interaction between the SWI/SNF Chromatin Remodeling Complex and the Zinc Finger Factor CTCF” (International Journal of Molecular Sciences, 2020)
# Entries after “also recorded” stand apart in the source; their conditions may differ.
# T1: MBP-fused CTCF zinc finger domains 1–11 (residues 263–582) (human, UniProt P49711 263-582)
# T1 construct: CTCF zinc finger domains 1-11, residues 263-582; also called MBP-CTCF-ZF1-11; CTCF domains 1–11; source: E. coli BL21, purified (amylose resin, Superdex 75 gel filtration)
# T1 sequence (looked up): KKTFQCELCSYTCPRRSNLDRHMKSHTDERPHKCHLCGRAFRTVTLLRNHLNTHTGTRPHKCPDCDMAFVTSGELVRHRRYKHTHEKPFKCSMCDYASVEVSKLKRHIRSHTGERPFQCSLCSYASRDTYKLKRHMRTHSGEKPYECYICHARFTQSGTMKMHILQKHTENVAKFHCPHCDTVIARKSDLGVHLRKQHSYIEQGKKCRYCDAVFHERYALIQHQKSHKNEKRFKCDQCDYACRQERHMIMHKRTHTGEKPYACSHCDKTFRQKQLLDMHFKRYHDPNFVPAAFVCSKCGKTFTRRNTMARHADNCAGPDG
# T2: MBP-fused CTCF zinc finger domains 4–8 (residues 348–494) (human, UniProt P49711 348-494)
# T2 construct: CTCF zinc finger domains 4-8, residues 348-494; also called MBP-CTF-ZF4-8; CTCF domains 4–8; source: E. coli BL21, purified (amylose resin, Superdex 75 gel filtration)
# T2 sequence (looked up): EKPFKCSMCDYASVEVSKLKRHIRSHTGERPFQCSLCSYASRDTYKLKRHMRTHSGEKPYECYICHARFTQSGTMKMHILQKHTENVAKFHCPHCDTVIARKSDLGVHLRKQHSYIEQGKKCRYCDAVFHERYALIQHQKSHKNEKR
# B1: MBP-fused CTFC domains 1–11: recombinant maltose-binding protein (MBP)-fused CTCF zinc finger domains 1–11 (residues 263–582) (protein)
# chain: T1 sequence (looked up)
# modifications: left off: MBP, end not stated, kept
# B2: BRK domain of BRG1, region 612–656, synthetic polypeptide (peptide)
# chain: Ac-MSDLPVKVIHVESGKILTGTDAPKAGQLEAWLEMNPGYEVAPRSD-NH2
# notes: BRK domain of human BRG1, region 612-656; Coupled to the BLI sensor by EDC/NHS chemistry; also called BRK-BRG1; BRK-BRG1 domain; source: synthetic peptide (solid phase synthesis, purified by RP-HPLC)
# B3: MBP-fused CTFC domain 4–8: recombinant maltose-binding protein (MBP)-fused CTCF zinc finger domains 4–8 (residues 348–494) (protein)
# chain: T2 sequence (looked up)
# modifications: left off: MBP, end not stated, kept
# Tests used:
# [1] = target: T3, CTCF zinc finger domains 1–11 (residues 263–582), MBP-fused (Homo sapiens, UniProt P49711); experiment: Biolayer interferometry (BLI), immobilised BRK-BRG1 vs MBP-fused CTCF zinc fingers 1–11; assay type: binding
# T3 construct: CTCF zinc finger domains 1–11 (residues 263–582) and 4–8 (residues 348–494); made in house; host or cells: E. coli BL21
# Method: (§1) 4.8. Recombinant CTCF Zinc Finger Domains 1–11 and 4–8 Expression and Purification
# (§2) The plasmids CTCF-ZF1-11-pMalC2G and CTF-ZF4-8-pMalC2G, obtained as previously reported, were used to transform E. coli BL21 host strain. Transformed colonies were inoculated in LB 0.2% glucose medium and grown a 37 °C, until the culture reached the optical density of 0.6 nm at 600 nm (OD600). At this point of growth, 200 µM ZnSO4 was added to the culture and the expression of the protein was induced by using IPTG 0.3 mM. When the culture reached 0.9 OD600, bacterial cells were harvested by centrifugation. Pellets were resuspended in PBS (pH 7.4) and lysed by sonication on ice. Lysates were centrifuged for 30 min at 27.500 relative centrifugal force and the supernatants containing the expressed proteins were loaded on amylose resin (New England Biolabs, Milan, Italy), according to the manufacturer’s protocol, and incubated overnight under rotation. Following washes with 1X PBS, the purified proteins MBP-CTF-ZF4-8 and MBP-CTCF-ZF1-11 were obtained adding maltose elution buffer (10 mM maltose, 1X PBS). Then, the affinity-purified proteins were loaded onto an HiLoad 26/60 Superdex 75 gel filtration chromatography column (GE Healthcare, Milan, Italy) equilibrated and eluted with PBS. The purified products were finally concentrated using a Amicon Ultra Centrifugal Filter (Merck).
# 4.9. […]
# [2] = target: T4, CTCF zinc finger domains 4–8 (residues 348–494), MBP-fused (Homo sapiens, UniProt P49711); experiment: Biolayer interferometry (BLI), immobilised BRK-BRG1 vs MBP-fused CTCF zinc fingers 4–8; assay type: binding
# T4 construct: and 4–8 (residues 348–494) in a bacterial expression system; made in house; host or cells: E. coli BL21
# Method: as §1, §2
# 4.9. […]
# [3] = test system: BRK-BRG1 (BRK domain of human BRG1, region 612–656); experiment: BLI detection limit, MBP-fused CTCF zinc finger domains on immobilised BRK-BRG1; assay type: binding; conditions: PBS
# Method: 4.9. Binding of BRK-BRG1 to Recombinant CTFC Multiple Zinc Finger Domains by Biolayer Interferometry (BLI)
# BLI measurements were performed using a BLItz system and ARG2 commercial biosensors (ForteBio, CA, United States), following the manufacturer’s instructions. A reduced volume sample cuvette (4 µL) was used for all the experiments. Assays were performed by immobilizing the synthetic BRK-BRG1 domain on the surface of the sensor chip and exposing it to solutions of recombinant CTFC domain 1–11 or CTCF domains 4–8, both fused to MBP, dissolved in PBS at increasing concentrations. After pre-hydration for 10 min in PBS buffer, the immobilization was achieved by pre-activating the sensor surface for 180 s with EDC/NHS, both in water, at 0.4 M and 0.1 M, respectively. Then, the sensor chip was exposed for 300 s to a solution of BRK-BRG1 at 200 µg/mL in sodium acetate pH 4.5. After extensive washing with buffer, the sensor chip surface was deactivated using 1 M ethanolamine in water pH 8.5 for 180 s. Binding assays were performed after exposure for 30 s to PBS (running buffer) to acquire the initial baseline. Next, the derivatized chip was exposed to the CTFC protein solutions in PBS for 120 s, followed by PBS washes (120 s). Then, the sensor chip was fully regenerated, restoring the baseline, by treatment with a solution of NaOH 5 mM for 10 s and a further wash with PBS. […]
# [4] = Precipitation of MBP-fused CTCF domains 1–11 in PBS; assay type: physicochemical; conditions: concentrations higher than 3.0 µM
# Method: as §2, with “(Merck). […]” for “(Merck).”
# [5] = target: T1, MBP-fused CTCF zinc finger domains 1–11 …; experiment: BLI; synthetic BRK-BRG1 immobilised on ARG2 biosensor by EDC/NHS (BLItz); MBP-fused CTCF zinc finger domains as analytes in PBS; free MBP signal subtracted; KD from plateau shifts, one binding site hyperbola; conditions: both partners purified
# [6] = target: T2, MBP-fused CTCF zinc finger domains 4–8 …; experiment: as above; conditions: both partners purified
molecule,measurement,setting,value
Ac-MSDLPVKVIHVESGKILTGTDAPKAGQLEAWLEMNPGYEVAPRSD-NH2 [BRK-BRG1],"direct binding to CTCF zinc finger region 1–11, result in words",[1],binds the CTCF region including the eleven zinc finger domains
same,"direct binding to CTCF zinc fingers 4–8, result in words",[2],direct binding; also recorded: the region encompassing domains from 4 to 8 strongly contributes to this interaction; also recorded: binds the zinc finger motifs 4–8 of CTCF
B1,"BLI shift at low concentration, domains 1–11",[3]; solutions at concentrations below 0.5 µM,No shifts were measured
same,precipitation of the protein,[4],the protein underwent precipitation
B2,Kd,[5],~2300 nM
same,Kd,[6],~95 nM
B3,"BLI shift at low concentration, domains 4–8",[3]; solutions at concentrations below 10 nM,No shifts were measured
